Molecular target: biotinylated recombinant SARS-CoV-2 RBD (SARS-CoV-2) (UniProt P0DTC2)
Experiment: BLI

Substance: soluble N. vison ACE2 (domain or fragment)
- Kd: 1500 nM
